We go through eleven molecules from patent US20080050396A1 (SURVAC, published 2008).

In the assay the target is HLA-A2 (human). In words: assembly assay: peptide stabilisation of HLA-A2 from T2 lysate, W6/32 immunoprecipitation.

B1: bcl222 (peptide)
peptide: SLALVGACI
notes: The end of the range is worked out from the printed start and the peptide length
Molecule B1 returned a C50 of 1 µM.

B2: Bcl224 (peptide)
peptide: ALVGACITL
notes: as for B1
B2 displayed a C50 of 0.7 µM.

B3: bcl80 (peptide)
peptide: AAAGPALSPV
notes: as for B1
B3: the C50 is 36 µM.

B4: bcl214 (peptide)
peptide: WLSLKTLLSL
notes: as for B1
B4 registered a C50 of 3 µM.

B5: bcl124 (peptide)
peptide: FTARGRFATV
notes: as for B1
B5 returned a C50 of 1 µM.

B6: bcl180 (peptide)
peptide: YLNRHLHTWI
notes: as for B1
With B6, the C50 stood at 15 µM.

B7: Bcl85 (peptide)
peptide: ALSPVPPVV
notes: as for B1
Take B7: the C50 is 1 µM.

B8: bcl218 (peptide)
peptide: KTLLSLALV
notes: as for B1
In turn, B8 yielded a C50 of 2 µM.

B9: bcl172 (peptide)
peptide: NIALWMTEYL
notes: as for B1
Molecule B9 had a C50 of 2 µM.

B10: bcl208 (peptide)
peptide: PLFDFSWLSL
notes: as for B1
Take B10: the C50 was 7 µM.

B11: bcl220 (peptide)
peptide: LLSLALVGA
notes: as for B1
With B11, the C50 was 1 µM.
